For one data set, the target named is SufA (E. coli) (UniProt P77667). The experiment in a line: SPR. A general note: In SPR one partner is held on a chip, and binding of the other changes the refractive index at the surface.
Another data set deals with T1, (His)6-SufS (E. coli, UniProt P77444 1-406).
T1 sequence (looked up): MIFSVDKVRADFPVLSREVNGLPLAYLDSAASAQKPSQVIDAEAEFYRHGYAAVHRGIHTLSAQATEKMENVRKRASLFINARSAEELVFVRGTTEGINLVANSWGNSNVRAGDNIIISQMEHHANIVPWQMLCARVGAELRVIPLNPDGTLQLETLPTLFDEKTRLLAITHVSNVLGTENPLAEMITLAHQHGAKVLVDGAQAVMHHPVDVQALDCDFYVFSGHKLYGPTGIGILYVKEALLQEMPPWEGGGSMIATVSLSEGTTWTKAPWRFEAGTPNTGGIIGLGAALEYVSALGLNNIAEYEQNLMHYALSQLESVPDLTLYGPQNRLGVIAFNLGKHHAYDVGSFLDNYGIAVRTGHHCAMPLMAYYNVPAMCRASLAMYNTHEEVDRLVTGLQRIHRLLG
The experiment in a line: SPR.

For another data set, the target named is T2, SufB (E. coli, UniProt P77522 1-495).
T2 sequence (looked up): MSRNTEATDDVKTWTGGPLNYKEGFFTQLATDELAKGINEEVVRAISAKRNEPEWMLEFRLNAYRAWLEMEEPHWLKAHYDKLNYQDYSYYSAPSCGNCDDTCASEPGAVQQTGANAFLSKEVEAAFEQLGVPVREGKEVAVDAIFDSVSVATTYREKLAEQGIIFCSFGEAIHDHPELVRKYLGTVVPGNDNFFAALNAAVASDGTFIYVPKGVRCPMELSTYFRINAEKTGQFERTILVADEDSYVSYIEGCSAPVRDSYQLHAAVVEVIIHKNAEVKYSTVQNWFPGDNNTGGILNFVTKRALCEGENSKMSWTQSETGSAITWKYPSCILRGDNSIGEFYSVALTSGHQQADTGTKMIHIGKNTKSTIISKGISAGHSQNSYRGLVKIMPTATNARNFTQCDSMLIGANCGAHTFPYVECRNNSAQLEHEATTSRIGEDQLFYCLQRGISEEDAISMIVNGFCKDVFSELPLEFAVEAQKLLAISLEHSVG
The data set is described as follows: cross-linking.

A further data set deals with T3, SufC (E. coli, UniProt P77499 1-248).
T3 sequence (looked up): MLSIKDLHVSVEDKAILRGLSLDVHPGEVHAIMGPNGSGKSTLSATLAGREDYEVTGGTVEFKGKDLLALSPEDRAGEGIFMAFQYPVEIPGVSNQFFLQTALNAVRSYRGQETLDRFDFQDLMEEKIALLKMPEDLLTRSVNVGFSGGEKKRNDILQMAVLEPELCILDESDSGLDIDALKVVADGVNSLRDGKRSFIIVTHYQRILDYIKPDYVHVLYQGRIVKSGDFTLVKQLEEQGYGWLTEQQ
The data set is described as follows: cross-linking.

The data set “SEC” concerns the molecule itself. The experiment in a line: SEC.

As usually defined, the Kd is the concentration at which binding is half-saturated. A high value points to weaker binding. In turn, “(His)6-SufS (from UniProt P77444 1-406) (enzyme)” returned an equilibrium dissociation constant (Kd) in the data set with SufA (E. coli) of 1400 nM.

B1: SufE (natural protein, E. coli, UniProt P76194 1-138, looked up)
chain: MALLPDKEKLLRNFLRCANWEEKYLYIIELGQRLPELRDEDRSPQNSIQGCQSQVWIVMRQNAQGIIELQGDSDAAIVKGLIAVVFILYDQMTPQDIVNFDVRPWFEKMALTQHLTPSRSQGLEAMIRAIRAKAAALS
In the data set with (His)6-SufS, B1 yielded an equilibrium dissociation constant (Kd) of 1.1 nM.

B2: SufA pre-labeled with Mts-Atf-Biotin (natural protein, E. coli, UniProt P77667 1-122, looked up)
chain: MDMHSGTFNPQDFAWQGLTLTPAAAIHIRELVAKQPGMVGVRLGVKQTGCAGFGYVLDSVSEPDKDDLLFEHDGAKLFVPLQAMPFIDGTEVDFVREGLNQIFKFHNPKAQNECGCGESFGV
modifications: Mts-Atf-biotin on cysteine residues (reducible disulfide bonds)
For the molecule B2, the binding result with SufB and in the data set with SufC was “binds” in each case.

B3: SufA (natural protein, E. coli, UniProt P77667 1-122, looked up)
chain: MDMHSGTFNPQDFAWQGLTLTPAAAIHIRELVAKQPGMVGVRLGVKQTGCAGFGYVLDSVSEPDKDDLLFEHDGAKLFVPLQAMPFIDGTEVDFVREGLNQIFKFHNPKAQNECGCGESFGV
One may read the stoichiometry N as the number of molecules, sites or subunits per partner or assembly. As for B3, in “SEC”, the “stoichiometry N” value turned out to be 2.

For the origin of these results see publication PMC2783425 (Biochemistry, 2009).
